Results on six molecules are retold here after paper PMC10128040, “Structural Elucidation of a Protective B Cell Epitope on Outer Surface Protein C (OspC) of the Lyme Disease Spirochete, Borreliella burgdorferi” (mBio, 2023).

In series [1] the target is recombinant OspC type B (OspCB), residues 38 to 202 (B. burgdorferi strain ZS7) (UniProt Q44977). In words: crystal structure; OspCB alone (22°C, 100 mM sodium phosphate citrate pH 4.2, 41.9% PEG 600; 1.5 Å) and OspCK alone (4°C, 100 mM Tris pH 8.5, 40% PEG 400, 200 mM LiSO4; 1.9 Å); P2_(1).
The target in series [2] is recombinant OspC type K (OspCK), residues 38 to 202 (B. burgdorferi strain 297). Described as above.
Series [3] deals with the molecule itself. Kind of series: crystal structure; B5 Fab complexed with OspCA 1:1, 10 mg/mL; sitting drop, 22°C, 100 mM sodium cacodylate pH 6.5, 5% PEG 8K, 40% MPD; 2.7 Å, P2_(1)2_(1)2.
Series [4] concerns the target T1, biotinylated recombinant OspC type A (OspCA) (Borreliella burgdorferi strain B31, …, UniProt Q07337, biotinylated (site not stated)).
T1 construct: Outer surface protein C type A, B. burgdorferi strain B31, residues 38 to 201; also called biotinylated OspCA; biotin-tagged recombinant OspC type A; not shown: deca-histidine, N-terminal, cleaved; SUMO, N-terminal, cleaved
Kind of series: ELISA; capture ELISA: B5 IgG coated at 1 μg/mL in PBS; biotinylated OspC types A, B, K diluted 2-fold from 20 μg/mL; detected with avidin-HRP. The conditions noted are these: both partners purified.

The target of series [5] is T2, biotinylated recombinant OspC type B (OspCB) (Borreliella burgdorferi strain ZS7, …, UniProt Q44977, biotinylated (site not stated)).
T2 construct: Outer surface protein C type B, B. burgdorferi strain ZS7, residues 38 to 202; also called biotinylated OspC type B; biotin-tagged recombinant OspC type B; not shown: deca-histidine, N-terminal, cleaved
The series is described as above. The conditions noted are these: both partners purified.

In series [6] the target is native OspC type A (OspCA) on the surface of viable B. burgdorferi strain B313 (B. burgdorferi (endogenous in strain B313)) (UniProt Q07337). Kind of series: flow cytometry on cells; 5 x 10^6 live B. burgdorferi B313 cells incubated with 10 μg/mL chimeric B5 IgG1 at 37°C for 1 h in BSK-II; goat anti-human IgG-Alexa 647; BD FACSCalibur. For orientation: In flow cytometry, cells or beads pass a laser one at a time.

Series [7] has as its target T3, recombinant OspC type A (OspCA), residues 38 to 201 (B. burgdorferi strain B31, UniProt Q07337).
T3 construct: Outer surface protein C type A, B. burgdorferi strain B31, residues 38 to 201; Homodimer; also called rOspC type A; outer surface protein C; not shown: deca-histidine, N-terminal, cleaved; SUMO, N-terminal, cleaved
Kind of series: crystal structure; B5 Fab complexed with OspCA 1:1, 10 mg/mL; sitting drop, 22°C, 100 mM sodium cacodylate pH 6.5, 5% PEG 8K, 40% MPD; 2.7 Å, P2_(1)2_(1)2. The conditions noted are these: both partners purified.

For series [8], the target named is T1, biotinylated recombinant OspC type A …. Kind of series: BLI; biotinylated OspCA (3 μg/mL) captured on streptavidin biosensors; MAb B5 100 to 1.56 nM, 5 min association, 30 min dissociation; PBS with 2% BSA; 1:2 bivalent analyte model; apparent; Octet RED96e. The conditions noted are these: both partners purified. In general terms: In BLI a coated tip is dipped into the sample, and binding shifts an interference pattern.

A word on the stoichiometry N: it is the number of molecules, sites or subunits per partner or assembly. On to “recombinant OspC type B (OspCB), residues 38 to 202 (from UniProt Q44977 38-202) (domain or fragment)”, for which, in series [1], the stoichiometry N was 2.

As for “recombinant OspC type K (OspCK), residues 38 to 202 (domain or fragment)”, in series [2], the stoichiometry N was 2.

B1: recombinant OspC type A (OspCA), residues 38 to 201 (domain or fragment, B. burgdorferi strain B31, UniProt Q07337 38-201, looked up)
chain: KGPNLTEISKKITDSNAVLLAVKEVEALLSSIDEIAAKAIGKKIHQNNGLDTENNHNGSLLAGAYAISTLIKQKLDGLKNEGLKEKIDAAKKCSETFTNKLKEKHTDLGKEGVTDADAKEAILKTNGTKTKGAEELGKLFESVEVLSKAAKEMLANSVKELTSP
notes: Outer surface protein C type A, B. burgdorferi strain B31, residues 38 to 201; Homodimer; also called rOspC type A; outer surface protein C; not shown: deca-histidine, N-terminal, cleaved; SUMO, N-terminal, cleaved
As for B1, the “stoichiometry N” value in series [3] came to 2.

B2: chimeric B5 IgG1 (mouse B5 VH and VL on human IgG1 Fc and kappa light chain) (antibody, V domains shown)
VH: EVQLEESGPEQKKPGETVMMSCKASGYTFTDHSMHWVKQAPGKGLKWMGWINTETGEPTCADDFKGRFALSLETSSRTAFLQINNLKNEDTAIYFCIGRWGYYVYWGQGTTLVVSS
VL: DIQMTQSPASLSVSVGESVTIICRASENINSNLAWYQQKQGKPPQLLVYAATNLAGGVPSRFSGSGSGTQYSLKINSLQSEDFGTYYCQHVWGSPWTFGGGTKLEIK
notes: mouse B5 VH, as the VH of the heavy chain of m1; human IgG1 heavy chain constant region from the 'human IgG1 Fc' expression vector; mouse B5 VL, as the VL of the light chain of m1; human kappa light chain constant region from the expression vector; IgG1, kappa; also called chimeric derivative of B5; source: Expi293 cells, transfected, purified; copies: 2 + 2
For the molecule B2, the binding result in series [4] was “binds”; in series [5], “no binding (tested: 20 μg/mL)”. The same molecule showed an MFI in series [6] above 3200.

B3: B5 Fab fragment (Fab, V domains shown)
VH: B2 VH
VL: B2 VL
notes: VH and CH1 of mouse MAb B5; VL and CL of mouse MAb B5; Fab of the mouse IgG2a MAb B5; also called Fab B5; source: papain digestion of B5 IgG from the CDC; Fc depleted by protein A FPLC; purified by SEC (Superdex 200)
As for B3, the “stoichiometry N” value in series [7] was found to be 1.

B4: B5 IgG (as used for BLI and HX-MS; mouse IgG2a or chimeric IgG1 not told) (antibody, V domains shown)
VH: B2 VH
VL: B2 VL
notes: mouse B5 VH, as the VH of the heavy chain of m1; mouse B5 VL, as the VL of the light chain of m1; The methods say the chimeric IgG1 was used for dot blot and flow cytometry, which may mean that the mouse IgG2a was used here; also called MAb B5; B5 MAb; copies: 2 + 2
Turning to B4, the Kd in series [8] is around 200 pM.
